Laboratory results taken from PMC12575793.

Target: T1, C-reactive protein (CRP) (UniProt P02741 19-224)
T1 sequence: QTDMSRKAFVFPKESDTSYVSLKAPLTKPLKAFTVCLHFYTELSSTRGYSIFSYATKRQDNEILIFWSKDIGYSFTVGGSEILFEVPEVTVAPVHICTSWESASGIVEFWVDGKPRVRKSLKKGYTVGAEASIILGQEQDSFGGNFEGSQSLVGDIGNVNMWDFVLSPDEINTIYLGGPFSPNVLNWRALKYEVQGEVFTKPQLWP
Assay: fluorescence recovery from graphene oxide

B1: FAM-labeled CRP aptamer (ssDNA)
DNA: GGCAGGAAGACAAACATATAATTGAGATCGTTTGATGACTTTGTAAGAGTGTGGAATGGTCTGTGGTGCTGT
binding result: binds
